From the RNAGym collection of RNA variant scans (doi:10.1073/pnas.2313332121)

B1: TPR t1 (parent)
chain: GACCAAUCUGCCCUCAGAGCUCGAGAACAUCUUCGGAUGCAGAGGAGGCAGGCUUCGGUGGCGCGAUAGCGCCAACGUCCUCAACCUCCAAUGCAUCCCACCACAUGAUGAUGCCUGAAGAGCCUUGGUUUUUUG

Variants of: B1
Experiment: polymerase ribozyme fitness, log enrichment relative to wild type (log ratio); higher = more active; in vitro selection for triplet polymerase activity
How it was run: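 A heterodimeric triplet polymerase ribozyme had each of its subunits mutagenized by PCR into a library, which was transcribed. One round of in vitro selection, done in triplicate, annealed each library with a biotinylated primer, its partner subunit and triplets, then incubated it frozen at −7 °C before gel excision of extended constructs, streptavidin-bead capture and RT-PCR. Fitness is the logarithm of genotype enrichment relative to wild-type enrichment, based on Illumina sequencing of inputs and outputs and inverse-variance-weighted replicate averages. A base-2 logarithm is used, and genotypes were kept only with ≥10 input reads and ≥1 read per output.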

Going from C12A G120C A121U to C12A A111G, the “polymerase ribozyme fitness (log ratio)” value falls from 1.87 to 0.3.

Compared with C12A C20U G47U, C11U C99U is higher in “polymerase ribozyme fitness (log ratio)” value: -4.43 for the first, -3.13 for the second.

Compared with C12A C62G U78C C79A C85G, C12A G17U A43U is higher in “polymerase ribozyme fitness (log ratio)” value: -7.47 for the first, -4.46 for the second.

Compared with C12A C86U A111U, C12A A18U C76G G77U U96A is lower in “polymerase ribozyme fitness (log ratio)” value: -3.42 for the first, -4.3 for the second.

C11U G42C G63C U130G and C12A G19U G42U U92A U112C U129G are within 0.2 log units of each other in “polymerase ribozyme fitness (log ratio)” value: -3.61 for the first, -3.59 for the second.

Compared with C11U G51U A119U, C11U C62G C89U A121C C124G U125A is higher in “polymerase ribozyme fitness (log ratio)” value: -3.53 for the first, -0.483 for the second.

Going from C11U G48A G61A C86G to C12A C72U A100U, the “polymerase ribozyme fitness (log ratio)” value falls from -1.75 to -2.13.

C12A C102U C115A and C12A C40U C99U are within 0.2 log units of each other in “polymerase ribozyme fitness (log ratio)” value: -4.21 for the first, -4.15 for the second.

First: C12A C62A C72U C98U U126C
Second: C11U C72A U78A C97A
The “polymerase ribozyme fitness (log ratio)” value of the first is higher: -2.97 for the first, -5.56 for the second.

First: C12A C85G
Second: C12A C22U C56U A83C U125A
The “polymerase ribozyme fitness (log ratio)” value of the first is higher: -2.79 for the first, -4.56 for the second.

First: C12A C15A C72U C79A C88A
Second: C12A G61C U78C C80U C82A A121C
The “polymerase ribozyme fitness (log ratio)” value of the first is higher: -5.1 for the first, -7.45 for the second.

C11U G19A C49U C56U U59C C114U and C12A C49G G63C C86G U131G are within 0.2 log units of each other in “polymerase ribozyme fitness (log ratio)” value: -2.93 for the first, -3.12 for the second.

First: C11U C114G
Second: C11U C114U
The “polymerase ribozyme fitness (log ratio)” value of the first is lower: -3.54 for the first, -1.57 for the second.

First: C12A A41U G45A C64A U87C A100C U116C
Second: C11U G113C
The “polymerase ribozyme fitness (log ratio)” value of the first is lower: -6.47 for the first, -2.55 for the second.

First: C11U C56A C104A C115G
Second: C12A A26C C56G G63U C89G G107A U116C
The “polymerase ribozyme fitness (log ratio)” value of the first is higher: -6.27 for the first, -7.06 for the second.

First: C12A U33G G48A A119G
Second: C12A G51A
The “polymerase ribozyme fitness (log ratio)” value of the first is lower: -5.25 for the first, -2.41 for the second.

Compared with C12A G51C, C12A A29U C56U is higher in “polymerase ribozyme fitness (log ratio)” value: -4.5 for the first, -3.33 for the second.

Compared with C12A A121U, C11U G60A G61U U78C C86G is lower in “polymerase ribozyme fitness (log ratio)” value: 1.74 for the first, -4.45 for the second.

Compared with C11U U38G G57U G69C A74G G110A, C12A C40U U59A A111G C124A is higher in “polymerase ribozyme fitness (log ratio)” value: -7.09 for the first, -0.777 for the second.

Compared with C11U C70U C101A G128C, C12A G69C A90U U106A is lower in “polymerase ribozyme fitness (log ratio)” value: -4.09 for the first, -4.63 for the second.

Compared with C11U U30A G61U, C12A C28U G63C is higher in “polymerase ribozyme fitness (log ratio)” value: -4.45 for the first, -2.37 for the second.

Compared with C12A C70A G127U, C11U G17U G48A C114G is lower in “polymerase ribozyme fitness (log ratio)” value: -2.31 for the first, -6.05 for the second.

First: C12A G51U C64U A90G
Second: C12A A46U G47C A68G U78C C124G
The “polymerase ribozyme fitness (log ratio)” value of the first is higher: -2.6 for the first, -4.93 for the second.

Compared with C11U U116G G122A C124U, C11U C70A U129A is lower in “polymerase ribozyme fitness (log ratio)” value: 0.369 for the first, -3.59 for the second.

Compared with C12A G52A A91G, C11U C85G U109G C123A is lower in “polymerase ribozyme fitness (log ratio)” value: -1.2 for the first, -5.74 for the second.

Compared with C12A G42A C88U C114A G120A, C11U G71A C98U A105U G110U G122U C124A is lower in “polymerase ribozyme fitness (log ratio)” value: -2.22 for the first, -7.92 for the second.

Going from C11U G120U G122U to C12A C62U A83G A100C, the “polymerase ribozyme fitness (log ratio)” value falls from 1.38 to -3.89.

Going from C11U G127U to C11U G61U C76U A111C, the “polymerase ribozyme fitness (log ratio)” value falls from -2 to -5.8.

First: C11U G52A G57U A95U
Second: C11U G69U A121G
The “polymerase ribozyme fitness (log ratio)” value of the first is lower: -1.32 for the first, 2.01 for the second.

First: C11U U54C G63U C85A
Second: C12A A46U
The “polymerase ribozyme fitness (log ratio)” value of the first is lower: -2.46 for the first, -1.75 for the second.

First: C11U G57U
Second: C12A G107C A119C G120A
The “polymerase ribozyme fitness (log ratio)” value of the first is higher: -0.202 for the first, -4.18 for the second.

Going from C12A A37C A50G C53A to C11U C85G, the “polymerase ribozyme fitness (log ratio)” value falls from -0.87 to -2.37.

First: C11U G42C A75G U112C A121U G127A
Second: C12A G17U G42U C53G U59C C101A
The “polymerase ribozyme fitness (log ratio)” value of the first is higher: -0.694 for the first, -5.66 for the second.

Compared with C12A C73U C76A G120C, C11U G39C is lower in “polymerase ribozyme fitness (log ratio)” value: -0.37 for the first, -1.05 for the second.

Going from C12A U33A G48U A74C C94U to C12A A37U C114G, the “polymerase ribozyme fitness (log ratio)” value rises from -5.8 to -3.99.

Compared with C12A C28U G44A C49G C72U C86A, C12A G19U C73A G77C is lower in “polymerase ribozyme fitness (log ratio)” value: -4.58 for the first, -5.03 for the second.

Compared with C12A G120A U126G, C11U G60C A84U is lower in “polymerase ribozyme fitness (log ratio)” value: 0.354 for the first, -0.912 for the second.

Compared with C11U G52A U92G C102A G122U, C11U G44C G61U C104U U116C is higher in “polymerase ribozyme fitness (log ratio)” value: -6.57 for the first, -2.32 for the second.

Compared with C12A A74G, C12A A74U is lower in “polymerase ribozyme fitness (log ratio)” value: -0.0689 for the first, -0.922 for the second.

First: C12A G39C G47A A66U
Second: C11U G36U G117A C124U
The “polymerase ribozyme fitness (log ratio)” value of the first is higher: -3.14 for the first, -5.7 for the second.

Compared with C11U U106A G110C C123U, C12A C40A C86A C101U U106G is lower in “polymerase ribozyme fitness (log ratio)” value: -2.46 for the first, -5.32 for the second.

First: C11U C56G C88U G120C G122U G127A
Second: C11U U55C A121G
The “polymerase ribozyme fitness (log ratio)” value of the first is lower: -0.748 for the first, 1.39 for the second.
